The source of these data is patent US8629107B2, “Genes and proteins associated with angiogenesis and uses thereof” (National Jewish Health, priority 2005, dated 2014).

“Also recorded” adds a separate entry of the source.

One assay deals with MB114 cells. The experiment in a line: angiogenic sprouting in rat tail collagen matrices. It is filed as cell-based, murine. As for the experimental part: (§1) The effect putative angiogenic agents had on MB114 cell activities were determined as follows: (i) cell proliferation using a [^3H]thymidine incorporation assay as described (Albig et al, 2006; Albig and Schiemann, 2004; Albig and Schiemann, 2005); (ii) cell invasion through Matrigel matrices using a modified Boyden-chamber assay as described (Albig et al, 2006; Albig and Schiemann, 2004; Albig and Schiemann, 2005); (iii) p38 MAPK phosphorylation using immunoblot analyses as described (Albig et al, 2006; Albig and Schiemann, 2004; Albig and Schiemann, 2005); (iv) angiogenic sprouting in rat tail collagen matrices as described (Albig et al, 2006; Albig and Schiemann, 2004); and (v) Hes1- and SBE-driven luciferase reporter gene assays as described (Albig et al, 2006; Albig and Schiemann, 2004; Albig and Schiemann, 2005).
Finally, it was determined whether expression of these putative angiogenic factors could effect the angiogenic sprouting of quiescent MB114 cells monolayers. MB114 cells expressing either GFP or various putative angiogenic agents were grown to confluency, and subsequently were overlaid with rat tail collagen matrices. Angiogenic sprouting by quiescent EC monolayers was stimulated by inclusion of 10% FBS and allowed to proceed for 5 days. The quantity of invading angiogenic sprouts was determined by manual counting under a light microscope.
Based on the findings described in the Examples above, the inventors hypothesized that MAGP-2 promotes angiogenesis by antagonizing Notch1 signaling. To test this hypothesis, it was first determined whether inhibiting Notch signaling in MB114 cells would enhance their angiogenic sprouting. In doing so, MB114 cells were transiently transfected with the Hes1-luciferase reporter gene (and pCMV-β-gal cDNA as control), and subsequently were treated overnight with or without the highly specific gamma-secretase inhibitor, DAPT (Sastre et al, 2001), which inhibits S3-mediated cleavage of Notch1 and, consequently, NICD-mediated induction of Hes1 expression. Afterward, luciferase and β-gal activities were determined. […] In this experiment, quiescent MB114 cell monolayers were overlaid with rat tail collagen matrices, and were induced to form angiogenic sprouts by addition of 10% FBS supplemented with or without DAPT (10 μM). Five days later the number of invading angiogenic spouts were quantified by manual counting on a light microscope. Based on these findings, the inventors conclude that Notch activation functions in mediating angiostasis in MB114 cells. […] Collectively, these findings indicate that Notch1 signaling antagonizes angiogenic sprouting in MB114 cells, and that downregulation of Notch1 signaling components is necessary for angiogenesis activation in MB114 cells.
Having shown that Notch1 signaling mediates angiostasis in MB114 cells, the inventors next asked whether MAGP-2 promotes angiogenesis in MB114 cells via its ability to antagonize Notch signaling. To do so, MAGP-2-expressing MB114 cells were engineered to constitutively express active Notch1 NICD fragment in an attempt to overcome the block of Notch processing mediated by MAGP-2. More particularly, GFP-, MAGP-2-, and MAGP-2/N1ICD-expressing MB114 cells were transiently transfected with pHes1-luciferase and pCMV-β-gal cDNAs. Luciferase and β-gal activities were determined 48 h post-transfection. As the inventors observed previously, MAGP-2 expression reduced Hes1-luciferase activity in MB114 cells (FIG. 5C), a reaction that was bypassed by co-expression of NICD in these cells (FIG. 5C). […] In this experiment, quiescent monolayers of GFP-, MAGP-2-, and MAGP-2/N1ICD-expressing MB114 cells were overlaid with rat tail collagen matrices and incubated in the absence or presence of 10% FBS for 5 days. Afterward, the number of invading angiogenic sprouts were determined by manual counting under a light microscope.

Assay [1] concerns Hes1 promoter (Notch1 signaling). The experiment in a line: Hes1-driven luciferase reporter gene assay in MB114 cells. It is filed as cell-based, murine. As for the experimental part:
as §1
MAGP-2 can interact physically with Notch1 and its ligand, Jagged-1 (Miyamoto et al, 2006; Nehring et al, 2005), resulting in the ectodomain shedding of both molecules from the cell surface. Notch signaling also plays an essential role in regulating normal vessel development and angiogenesis in mammals (Leong and Karsan, 2005; Shawber and Kitajewski, 2004). Given these two facts, the inventors hypothesized that MAGP-2 promotes angiogenesis by modulating Notch1 signaling. To test this hypothesis, first measured were changes in luciferase expression driven by a Hes1-luciferase reporter gene whose expression is induced by Notch1 activation (Iso et al, 2003). MB114 and HUVEC cells were transiently transfected either with pHes1-luciferase, pCMV-β-gal, and MAGP-2 cDNAs, or with pHes1-luciferase and pCMV-β-gal cDNAs and subsequently stimulated with rMAGP-2 (1 or 5 mg/ml). Afterward, luciferase and β-gal activities contained in detergent-solubilized cell extracts were measured. In addition, GFP- and MAGP-2-expressing MB114 cells were transiently transfected with pHes1-luciferase and pCMV-β-gal cDNAs, together with or without Jagged-1 cDNA as indicated. Afterward, luciferase and β-gal activities were measured as above.
To further investigate the impact of MAGP-2 on Notch1 processing and NICD accumulation, the inventors took advantage of recent findings showing that the ability of TGF-β to induce Hes1 promoter activity requires Smad3 to interact physically with NICD (Blokzijl et al, 2003), a reaction that is dispensable for canonical Smad3-mediated signaling stimulated by TGF-β (Blokzijl et al, 2003). It was therefore reasoned that the ability of MAGP-2 to inhibit NICD production in ECs would reduce the capacity of TGF-β to induce luciferase expression driven by the Hes1 promoter, but not that driven by the synthetic Smad2/3-binding element (SBE). GFP- and MAGP-2-expressing MB114 cells were transiently transfected with either pHes1- or pSBE-luciferase, both together with pCMV-β-gal as indicated in FIG. 4B. Afterward, the resulting transfectants were stimulated overnight with increasing concentrations of TGF-β1 (0-5 ng/ml).
Based on the findings described in the Examples above, the inventors hypothesized that MAGP-2 promotes angiogenesis by antagonizing Notch1 signaling. To test this hypothesis, it was first determined whether inhibiting Notch signaling in MB114 cells would enhance their angiogenic sprouting. […] Afterward, luciferase and β-gal activities were determined. […]
(A reporter such as luciferase makes a cellular process visible.)

For assay [2] the test system is unchanged. Put plainly: Hes1-driven luciferase reporter gene assay in HUVEC cells. It is filed as cell-based, human. The arrangement: dose or concentration left out as unconfirmed. As for the experimental part: as §1
MAGP-2 can interact physically with Notch1 and its ligand, Jagged-1 (Miyamoto et al, 2006; Nehring et al, 2005), resulting in the ectodomain shedding of both molecules from the cell surface. […] To test this hypothesis, first measured were changes in luciferase expression driven by a Hes1-luciferase reporter gene whose expression is induced by Notch1 activation (Iso et al, 2003). […] Afterward, luciferase and β-gal activities contained in detergent-solubilized cell extracts were measured. […] Afterward, luciferase and β-gal activities were measured as above. […]

B1: MAGP-2: secreted glycoprotein (25 kDa); stably expressed in MB114 cells by bicistronic retroviral transduction, Myc-His tagged (protein)
chain: QRGDDVPETFTDDPNLVNDPSTDDTALADITPSTDDLAGDKNATAECRDEKFACTRLYSVHRPVRQCVHQSCFTSLRRMYIINNEICSRLVCKEHEAMKDELCRQMAGLPPRRLRRSNYFRLPPCENMNLQRPDGL
modifications: left off: small tags and cut ends
notes: secreted glycoprotein (25 kDa); stably expressed in MB114 cells by bicistronic retroviral transduction, Myc-His tagged
For B1, the “angiogenic sprouting of quiescent MB114 cell monolayers” value in the assay on MB114 cells (MB114 cells stably expressing the transgene vs GFP, 10% FBS, 5 days) is “significantly increased”. The “ability of Jagged-1 to induce Hes1-luciferase activity” value in assay [1] (MAGP-2-expressing vs GFP-expressing MB114 cells, with Jagged-1 cDNA) is listed as “abrogated”. In addition, the “ability of TGF-β to stimulate Hes1-luciferase activity” value in assay [1] (MAGP-2-expressing vs GFP-expressing MB114 cells, TGF-β1 0-5 ng/ml overnight) is recorded as “significantly decreased”. Also, the Hes1-driven luciferase activity result in assay [1] (MAGP-2 expression in MB114 cells) was “repressed; also recorded: reduced”; in assay [2] (MAGP-2 expression in HUVEC cells), “repressed”.

B2: rMAGP-2: recombinant FLAG-tagged MAGP-2 purified from bacterial cell extracts by anti-FLAG chromatography (protein, UniProt Q9QZJ6 29-164, looked up)
Microfibrillar-associated …: B1 chain
modifications: FLAG tag
notes: recombinant FLAG-tagged MAGP-2 purified from bacterial cell extracts by anti-FLAG chromatography
Take B2: in the assay on MB114 cells (purified recombinant protein added, 1 μg/ml), the “angiogenic sprouting of quiescent MB114 cell monolayers” value was “stimulated”. Besides, the Hes1-driven luciferase activity result in assay [1] (MB114 cells stimulated with recombinant protein, 1 or 5 mg/ml) was “repressed”; in assay [2] (HUVEC cells stimulated with recombinant protein) it was “repressed”.
